According to patent publication US20030190311A1:

How the values were obtained:
murine FcRn (murine) = assay: BIAcore SPR, equilibrium/Scatchard, soluble FcRn over immobilized IgG1, pH 6.0, 25 C
human FcRn (human) = assay: as above

Kd (murine FcRn (murine)): 269 nM
Kd (human FcRn (human)): 2530 nM
Substance: wild type human IgG1 MEDI-493 (SYNAGIS) (antibody)
